Source: IntAct's records for PubMed 35512704

B1: Speckle-type POZ protein (Homo sapiens), O43791 (parent)
chain: MSRVPSPPPPAEMSSGPVAESWCYTQIKVVKFSYMWTINNFSFCREEMGEVIKSSTFSSGANDKLKWCLRVNPKGLDEESKDYLSLYLLLVSCPKSEVRAKFKFSILNAKGEETKAMESQRAYRFVQGKDWGFKKFIRRDFLLDEANGLLPDDKLTLFCEVSVVQDSVNISGQNTMNMVKVPECRLADELGGLWENSRFTDCCLCVAGQEFQAHKAILAARSPVFSAMFEHEMEESKKNRVEINDVEPEVFKEMMCFIYTGKAPNLDKMADDLLAAADKYALERLKVMCEDALCSNLSVENAAEILILADLHSADQLKTQAVDFINYHASDVLETSGWKSMVVSHPHLVAEAYRSLASAQCPFLGPPRKRLKQS

Variants of: B1
Conditions: with ist1_human IST1, P53990
Chain of ist1_human IST1, P53990 (P53990 whole entry): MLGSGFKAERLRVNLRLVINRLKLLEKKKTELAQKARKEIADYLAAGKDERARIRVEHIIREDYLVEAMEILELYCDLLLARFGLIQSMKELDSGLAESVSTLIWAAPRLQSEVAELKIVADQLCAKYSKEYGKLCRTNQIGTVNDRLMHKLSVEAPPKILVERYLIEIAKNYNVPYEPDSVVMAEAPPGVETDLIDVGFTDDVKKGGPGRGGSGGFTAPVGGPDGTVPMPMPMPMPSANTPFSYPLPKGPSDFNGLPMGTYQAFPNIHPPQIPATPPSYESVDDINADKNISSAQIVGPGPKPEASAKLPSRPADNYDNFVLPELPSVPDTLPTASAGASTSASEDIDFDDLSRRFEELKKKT

| effect of a mutation on the interaction | Variant |
| --- | --- |
| with no effect | MSRVPSPPPPAEMSSGPVAESWCYTQIKVVKFSYMWTINNFSFCREEMGEVIKSSTFSSGANDKLKWCLRVNPKGLDEESKDYLSLCLLLVSCPKSEVRAKFKFSILNAKGEETKAMESQRAYRFVQGKDWGFKKFIRRDFLLDEANGLLPDDKLTLFCEVSVVQDSVNISGQNTMNMVKVPECRLADELGGLWENSRFTDCCLCVAGQEFQAHKAILAARSPVFSAMFEHEMEESKKNRVEINDVEPEVFKEMMCFIYTGKAPNLDKMADDLLAAADKYALERLKVMCEDALCSNLSVENAAEILILADLHSADQLKTQAVDFINYHASDVLETSGWKSMVVSHPHLVAEAYRSLASAQCPFLGPPRKRLKQS [Y87C] |

Variants of: B1
Conditions: with jak1_human JAK1, P23458
Chain of jak1_human JAK1, P23458 (P23458 whole entry): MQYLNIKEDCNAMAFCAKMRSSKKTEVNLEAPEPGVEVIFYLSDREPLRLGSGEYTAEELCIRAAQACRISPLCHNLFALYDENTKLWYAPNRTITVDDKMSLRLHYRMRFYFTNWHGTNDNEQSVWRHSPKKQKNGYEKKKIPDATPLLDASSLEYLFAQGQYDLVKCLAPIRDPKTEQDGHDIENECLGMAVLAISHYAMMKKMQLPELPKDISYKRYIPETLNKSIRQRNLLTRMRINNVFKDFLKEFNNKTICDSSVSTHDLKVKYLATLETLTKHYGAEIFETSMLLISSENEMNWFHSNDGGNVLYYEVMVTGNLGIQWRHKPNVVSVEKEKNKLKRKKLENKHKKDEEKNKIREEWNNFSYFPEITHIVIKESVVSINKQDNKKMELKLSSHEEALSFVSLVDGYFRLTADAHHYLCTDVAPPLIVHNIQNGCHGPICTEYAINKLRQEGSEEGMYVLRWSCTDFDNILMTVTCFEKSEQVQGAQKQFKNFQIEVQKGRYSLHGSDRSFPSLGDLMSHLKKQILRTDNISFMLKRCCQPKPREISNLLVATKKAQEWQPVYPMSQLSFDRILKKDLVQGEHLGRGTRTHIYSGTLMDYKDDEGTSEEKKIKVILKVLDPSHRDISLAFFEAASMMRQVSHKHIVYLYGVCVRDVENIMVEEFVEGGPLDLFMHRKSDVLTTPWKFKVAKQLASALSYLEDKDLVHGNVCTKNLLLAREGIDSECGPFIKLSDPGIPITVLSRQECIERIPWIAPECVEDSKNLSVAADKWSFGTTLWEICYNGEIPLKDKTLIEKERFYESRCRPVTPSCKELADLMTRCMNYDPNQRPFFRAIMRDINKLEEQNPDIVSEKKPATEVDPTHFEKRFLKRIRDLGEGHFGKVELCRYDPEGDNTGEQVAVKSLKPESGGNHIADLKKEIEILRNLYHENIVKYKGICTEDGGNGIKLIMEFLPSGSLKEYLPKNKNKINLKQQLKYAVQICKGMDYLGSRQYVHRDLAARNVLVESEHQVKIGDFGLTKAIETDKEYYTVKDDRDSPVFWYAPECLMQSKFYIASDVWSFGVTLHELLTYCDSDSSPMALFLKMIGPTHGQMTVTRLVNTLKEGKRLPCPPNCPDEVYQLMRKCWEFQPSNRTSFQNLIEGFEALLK

| effect of a mutation on the interaction | Variant |
| --- | --- |
| with no effect | MSRVPSPPPPAEMSSGPVAESWCYTQIKVVKFSYMWTINNFSFCREEMGEVIKSSTFSSGANDKLKWCLRVNPKGLDEESKDYLSLCLLLVSCPKSEVRAKFKFSILNAKGEETKAMESQRAYRFVQGKDWGFKKFIRRDFLLDEANGLLPDDKLTLFCEVSVVQDSVNISGQNTMNMVKVPECRLADELGGLWENSRFTDCCLCVAGQEFQAHKAILAARSPVFSAMFEHEMEESKKNRVEINDVEPEVFKEMMCFIYTGKAPNLDKMADDLLAAADKYALERLKVMCEDALCSNLSVENAAEILILADLHSADQLKTQAVDFINYHASDVLETSGWKSMVVSHPHLVAEAYRSLASAQCPFLGPPRKRLKQS [Y87C] |

Variants of: B1
Conditions: with jak3_human JAK3, P52333

| effect of a mutation on the interaction | Variant |
| --- | --- |
| with no effect | MSRVPSPPPPAEMSSGPVAESWCYTQIKVVKFSYMWTINNFSFCREEMGEVIKSSTFSSGANDKLKWCLRVNPKGLDEESKDYLSLCLLLVSCPKSEVRAKFKFSILNAKGEETKAMESQRAYRFVQGKDWGFKKFIRRDFLLDEANGLLPDDKLTLFCEVSVVQDSVNISGQNTMNMVKVPECRLADELGGLWENSRFTDCCLCVAGQEFQAHKAILAARSPVFSAMFEHEMEESKKNRVEINDVEPEVFKEMMCFIYTGKAPNLDKMADDLLAAADKYALERLKVMCEDALCSNLSVENAAEILILADLHSADQLKTQAVDFINYHASDVLETSGWKSMVVSHPHLVAEAYRSLASAQCPFLGPPRKRLKQS [Y87C] |

Variants of: B1
Conditions: with kat2a_human KAT2A

| effect of a mutation on the interaction | Variant |
| --- | --- |
| with no effect | MSRVPSPPPPAEMSSGPVAESWCYTQIKVVKFSYMWTINNFSFCREEMGEVIKSSTFSSGANDKLKWCLRVNPKGLDEESKDYLSLCLLLVSCPKSEVRAKFKFSILNAKGEETKAMESQRAYRFVQGKDWGFKKFIRRDFLLDEANGLLPDDKLTLFCEVSVVQDSVNISGQNTMNMVKVPECRLADELGGLWENSRFTDCCLCVAGQEFQAHKAILAARSPVFSAMFEHEMEESKKNRVEINDVEPEVFKEMMCFIYTGKAPNLDKMADDLLAAADKYALERLKVMCEDALCSNLSVENAAEILILADLHSADQLKTQAVDFINYHASDVLETSGWKSMVVSHPHLVAEAYRSLASAQCPFLGPPRKRLKQS [Y87C] |

Variants of: B1
Conditions: with kdm5a_human KDM5A

| effect of a mutation on the interaction | Variant |
| --- | --- |
| with no effect | MSRVPSPPPPAEMSSGPVAESWCYTQIKVVKFSYMWTINNFSFCREEMGEVIKSSTFSSGANDKLKWCLRVNPKGLDEESKDYLSLCLLLVSCPKSEVRAKFKFSILNAKGEETKAMESQRAYRFVQGKDWGFKKFIRRDFLLDEANGLLPDDKLTLFCEVSVVQDSVNISGQNTMNMVKVPECRLADELGGLWENSRFTDCCLCVAGQEFQAHKAILAARSPVFSAMFEHEMEESKKNRVEINDVEPEVFKEMMCFIYTGKAPNLDKMADDLLAAADKYALERLKVMCEDALCSNLSVENAAEILILADLHSADQLKTQAVDFINYHASDVLETSGWKSMVVSHPHLVAEAYRSLASAQCPFLGPPRKRLKQS [Y87C] |

Variants of: B1
Conditions: with kdm5c_human KDM5C

| effect of a mutation on the interaction | Variant |
| --- | --- |
| with no effect | MSRVPSPPPPAEMSSGPVAESWCYTQIKVVKFSYMWTINNFSFCREEMGEVIKSSTFSSGANDKLKWCLRVNPKGLDEESKDYLSLCLLLVSCPKSEVRAKFKFSILNAKGEETKAMESQRAYRFVQGKDWGFKKFIRRDFLLDEANGLLPDDKLTLFCEVSVVQDSVNISGQNTMNMVKVPECRLADELGGLWENSRFTDCCLCVAGQEFQAHKAILAARSPVFSAMFEHEMEESKKNRVEINDVEPEVFKEMMCFIYTGKAPNLDKMADDLLAAADKYALERLKVMCEDALCSNLSVENAAEILILADLHSADQLKTQAVDFINYHASDVLETSGWKSMVVSHPHLVAEAYRSLASAQCPFLGPPRKRLKQS [Y87C] |

Variants of: B1
Conditions: with kdm6a_human KDM6A

| effect of a mutation on the interaction | Variant |
| --- | --- |
| with no effect | MSRVPSPPPPAEMSSGPVAESWCYTQIKVVKFSYMWTINNFSFCREEMGEVIKSSTFSSGANDKLKWCLRVNPKGLDEESKDYLSLCLLLVSCPKSEVRAKFKFSILNAKGEETKAMESQRAYRFVQGKDWGFKKFIRRDFLLDEANGLLPDDKLTLFCEVSVVQDSVNISGQNTMNMVKVPECRLADELGGLWENSRFTDCCLCVAGQEFQAHKAILAARSPVFSAMFEHEMEESKKNRVEINDVEPEVFKEMMCFIYTGKAPNLDKMADDLLAAADKYALERLKVMCEDALCSNLSVENAAEILILADLHSADQLKTQAVDFINYHASDVLETSGWKSMVVSHPHLVAEAYRSLASAQCPFLGPPRKRLKQS [Y87C] |

Variants of: B1
Conditions: with vgfr2_human KDR

| effect of a mutation on the interaction | Variant |
| --- | --- |
| with no effect | MSRVPSPPPPAEMSSGPVAESWCYTQIKVVKFSYMWTINNFSFCREEMGEVIKSSTFSSGANDKLKWCLRVNPKGLDEESKDYLSLCLLLVSCPKSEVRAKFKFSILNAKGEETKAMESQRAYRFVQGKDWGFKKFIRRDFLLDEANGLLPDDKLTLFCEVSVVQDSVNISGQNTMNMVKVPECRLADELGGLWENSRFTDCCLCVAGQEFQAHKAILAARSPVFSAMFEHEMEESKKNRVEINDVEPEVFKEMMCFIYTGKAPNLDKMADDLLAAADKYALERLKVMCEDALCSNLSVENAAEILILADLHSADQLKTQAVDFINYHASDVLETSGWKSMVVSHPHLVAEAYRSLASAQCPFLGPPRKRLKQS [Y87C] |

Variants of: B1
Conditions: with lims1_human LIMS1, P48059
Chain of lims1_human LIMS1, P48059 (P48059 whole entry): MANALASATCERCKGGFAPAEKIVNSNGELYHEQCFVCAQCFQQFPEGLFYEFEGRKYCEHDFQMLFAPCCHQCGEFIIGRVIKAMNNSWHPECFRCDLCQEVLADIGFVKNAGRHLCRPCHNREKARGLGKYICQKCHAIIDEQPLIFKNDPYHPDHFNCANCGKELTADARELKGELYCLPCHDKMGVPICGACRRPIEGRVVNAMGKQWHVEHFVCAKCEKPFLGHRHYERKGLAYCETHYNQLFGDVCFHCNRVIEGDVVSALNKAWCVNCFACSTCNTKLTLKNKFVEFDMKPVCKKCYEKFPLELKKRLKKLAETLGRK

| effect of a mutation on the interaction | Variant |
| --- | --- |
| with no effect | MSRVPSPPPPAEMSSGPVAESWCYTQIKVVKFSYMWTINNFSFCREEMGEVIKSSTFSSGANDKLKWCLRVNPKGLDEESKDYLSLCLLLVSCPKSEVRAKFKFSILNAKGEETKAMESQRAYRFVQGKDWGFKKFIRRDFLLDEANGLLPDDKLTLFCEVSVVQDSVNISGQNTMNMVKVPECRLADELGGLWENSRFTDCCLCVAGQEFQAHKAILAARSPVFSAMFEHEMEESKKNRVEINDVEPEVFKEMMCFIYTGKAPNLDKMADDLLAAADKYALERLKVMCEDALCSNLSVENAAEILILADLHSADQLKTQAVDFINYHASDVLETSGWKSMVVSHPHLVAEAYRSLASAQCPFLGPPRKRLKQS [Y87C] |

Variants of: B1
Conditions: with maga6_human MAGEA6, P43360
Chain of maga6_human MAGEA6, P43360 (P43360 whole entry): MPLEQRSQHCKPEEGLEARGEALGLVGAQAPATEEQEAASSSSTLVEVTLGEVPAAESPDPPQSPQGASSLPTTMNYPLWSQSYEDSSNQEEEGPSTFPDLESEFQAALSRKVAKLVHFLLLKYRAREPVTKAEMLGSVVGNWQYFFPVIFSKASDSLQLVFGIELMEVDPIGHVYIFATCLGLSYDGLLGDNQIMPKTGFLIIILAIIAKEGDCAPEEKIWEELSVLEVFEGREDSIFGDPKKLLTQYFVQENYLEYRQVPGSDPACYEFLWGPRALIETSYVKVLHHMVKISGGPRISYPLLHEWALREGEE

| effect of a mutation on the interaction | Variant |
| --- | --- |
| with no effect | MSRVPSPPPPAEMSSGPVAESWCYTQIKVVKFSYMWTINNFSFCREEMGEVIKSSTFSSGANDKLKWCLRVNPKGLDEESKDYLSLCLLLVSCPKSEVRAKFKFSILNAKGEETKAMESQRAYRFVQGKDWGFKKFIRRDFLLDEANGLLPDDKLTLFCEVSVVQDSVNISGQNTMNMVKVPECRLADELGGLWENSRFTDCCLCVAGQEFQAHKAILAARSPVFSAMFEHEMEESKKNRVEINDVEPEVFKEMMCFIYTGKAPNLDKMADDLLAAADKYALERLKVMCEDALCSNLSVENAAEILILADLHSADQLKTQAVDFINYHASDVLETSGWKSMVVSHPHLVAEAYRSLASAQCPFLGPPRKRLKQS [Y87C] |

Variants of: B1
Conditions: with m3k1_human MAP3K1, Q13233

| effect of a mutation on the interaction | Variant |
| --- | --- |
| with no effect | MSRVPSPPPPAEMSSGPVAESWCYTQIKVVKFSYMWTINNFSFCREEMGEVIKSSTFSSGANDKLKWCLRVNPKGLDEESKDYLSLCLLLVSCPKSEVRAKFKFSILNAKGEETKAMESQRAYRFVQGKDWGFKKFIRRDFLLDEANGLLPDDKLTLFCEVSVVQDSVNISGQNTMNMVKVPECRLADELGGLWENSRFTDCCLCVAGQEFQAHKAILAARSPVFSAMFEHEMEESKKNRVEINDVEPEVFKEMMCFIYTGKAPNLDKMADDLLAAADKYALERLKVMCEDALCSNLSVENAAEILILADLHSADQLKTQAVDFINYHASDVLETSGWKSMVVSHPHLVAEAYRSLASAQCPFLGPPRKRLKQS [Y87C] |

Variants of: B1
Conditions: with mk10_human MAPK10, P53779
Chain of mk10_human MAPK10, P53779 (P53779 whole entry): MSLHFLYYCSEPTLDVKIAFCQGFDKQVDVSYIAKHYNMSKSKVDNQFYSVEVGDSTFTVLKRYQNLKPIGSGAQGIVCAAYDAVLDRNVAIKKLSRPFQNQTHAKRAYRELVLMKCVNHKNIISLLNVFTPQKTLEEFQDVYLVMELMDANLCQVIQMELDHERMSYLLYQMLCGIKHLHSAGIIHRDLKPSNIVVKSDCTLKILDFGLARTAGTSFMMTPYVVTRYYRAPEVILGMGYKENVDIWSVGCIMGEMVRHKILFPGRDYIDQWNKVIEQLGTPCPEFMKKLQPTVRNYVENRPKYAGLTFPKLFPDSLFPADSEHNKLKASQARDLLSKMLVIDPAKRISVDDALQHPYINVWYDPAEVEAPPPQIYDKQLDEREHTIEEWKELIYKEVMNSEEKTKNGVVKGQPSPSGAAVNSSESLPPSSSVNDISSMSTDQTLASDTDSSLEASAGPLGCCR

| effect of a mutation on the interaction | Variant |
| --- | --- |
| with no effect | MSRVPSPPPPAEMSSGPVAESWCYTQIKVVKFSYMWTINNFSFCREEMGEVIKSSTFSSGANDKLKWCLRVNPKGLDEESKDYLSLCLLLVSCPKSEVRAKFKFSILNAKGEETKAMESQRAYRFVQGKDWGFKKFIRRDFLLDEANGLLPDDKLTLFCEVSVVQDSVNISGQNTMNMVKVPECRLADELGGLWENSRFTDCCLCVAGQEFQAHKAILAARSPVFSAMFEHEMEESKKNRVEINDVEPEVFKEMMCFIYTGKAPNLDKMADDLLAAADKYALERLKVMCEDALCSNLSVENAAEILILADLHSADQLKTQAVDFINYHASDVLETSGWKSMVVSHPHLVAEAYRSLASAQCPFLGPPRKRLKQS [Y87C] |

Variants of: B1
Conditions: with mk14_human MAPK14, Q16539
Chain of mk14_human MAPK14, Q16539 (Q16539 whole entry): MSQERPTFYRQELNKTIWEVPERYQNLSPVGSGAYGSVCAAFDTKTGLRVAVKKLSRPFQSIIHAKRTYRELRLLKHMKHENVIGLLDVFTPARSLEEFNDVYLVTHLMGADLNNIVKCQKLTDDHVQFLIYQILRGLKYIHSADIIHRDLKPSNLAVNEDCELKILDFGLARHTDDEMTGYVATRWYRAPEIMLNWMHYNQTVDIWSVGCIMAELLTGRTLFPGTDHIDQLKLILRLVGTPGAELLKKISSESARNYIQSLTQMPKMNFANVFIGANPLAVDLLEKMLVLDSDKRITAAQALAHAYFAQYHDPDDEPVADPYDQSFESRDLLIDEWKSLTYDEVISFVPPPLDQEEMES

| effect of a mutation on the interaction | Variant |
| --- | --- |
| with no effect | MSRVPSPPPPAEMSSGPVAESWCYTQIKVVKFSYMWTINNFSFCREEMGEVIKSSTFSSGANDKLKWCLRVNPKGLDEESKDYLSLCLLLVSCPKSEVRAKFKFSILNAKGEETKAMESQRAYRFVQGKDWGFKKFIRRDFLLDEANGLLPDDKLTLFCEVSVVQDSVNISGQNTMNMVKVPECRLADELGGLWENSRFTDCCLCVAGQEFQAHKAILAARSPVFSAMFEHEMEESKKNRVEINDVEPEVFKEMMCFIYTGKAPNLDKMADDLLAAADKYALERLKVMCEDALCSNLSVENAAEILILADLHSADQLKTQAVDFINYHASDVLETSGWKSMVVSHPHLVAEAYRSLASAQCPFLGPPRKRLKQS [Y87C] |

Variants of: B1
Conditions: with mk03_human MAPK3, P27361
Chain of mk03_human MAPK3, P27361 (P27361 whole entry): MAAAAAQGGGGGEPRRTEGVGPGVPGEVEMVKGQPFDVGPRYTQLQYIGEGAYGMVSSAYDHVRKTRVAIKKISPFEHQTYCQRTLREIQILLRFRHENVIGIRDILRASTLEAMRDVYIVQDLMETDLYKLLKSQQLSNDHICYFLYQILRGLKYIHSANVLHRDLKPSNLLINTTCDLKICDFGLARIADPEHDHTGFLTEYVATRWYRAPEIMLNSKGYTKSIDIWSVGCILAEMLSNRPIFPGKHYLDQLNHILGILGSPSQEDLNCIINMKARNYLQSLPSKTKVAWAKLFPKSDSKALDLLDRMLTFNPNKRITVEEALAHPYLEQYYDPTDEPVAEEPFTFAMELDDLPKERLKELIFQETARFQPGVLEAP

| effect of a mutation on the interaction | Variant |
| --- | --- |
| with no effect | MSRVPSPPPPAEMSSGPVAESWCYTQIKVVKFSYMWTINNFSFCREEMGEVIKSSTFSSGANDKLKWCLRVNPKGLDEESKDYLSLCLLLVSCPKSEVRAKFKFSILNAKGEETKAMESQRAYRFVQGKDWGFKKFIRRDFLLDEANGLLPDDKLTLFCEVSVVQDSVNISGQNTMNMVKVPECRLADELGGLWENSRFTDCCLCVAGQEFQAHKAILAARSPVFSAMFEHEMEESKKNRVEINDVEPEVFKEMMCFIYTGKAPNLDKMADDLLAAADKYALERLKVMCEDALCSNLSVENAAEILILADLHSADQLKTQAVDFINYHASDVLETSGWKSMVVSHPHLVAEAYRSLASAQCPFLGPPRKRLKQS [Y87C] |

Variants of: B1
Conditions: with mk04_human MAPK4, P31152
Chain of mk04_human MAPK4, P31152 (P31152 whole entry): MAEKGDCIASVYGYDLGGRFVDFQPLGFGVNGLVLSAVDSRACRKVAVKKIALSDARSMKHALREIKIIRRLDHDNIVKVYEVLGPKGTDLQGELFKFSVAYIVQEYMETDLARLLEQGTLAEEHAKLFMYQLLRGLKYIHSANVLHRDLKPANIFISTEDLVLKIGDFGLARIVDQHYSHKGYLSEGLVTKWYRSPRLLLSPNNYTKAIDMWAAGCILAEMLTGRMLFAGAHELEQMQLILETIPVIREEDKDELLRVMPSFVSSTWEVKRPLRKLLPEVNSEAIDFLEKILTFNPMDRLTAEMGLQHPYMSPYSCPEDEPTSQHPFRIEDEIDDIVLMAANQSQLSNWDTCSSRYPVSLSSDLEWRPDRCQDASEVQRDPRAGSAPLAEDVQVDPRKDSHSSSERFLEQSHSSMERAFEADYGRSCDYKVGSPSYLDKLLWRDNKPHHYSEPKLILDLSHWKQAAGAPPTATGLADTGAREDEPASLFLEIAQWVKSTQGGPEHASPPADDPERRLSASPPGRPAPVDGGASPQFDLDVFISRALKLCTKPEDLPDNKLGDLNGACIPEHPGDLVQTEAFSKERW

| effect of a mutation on the interaction | Variant |
| --- | --- |
| with no effect | MSRVPSPPPPAEMSSGPVAESWCYTQIKVVKFSYMWTINNFSFCREEMGEVIKSSTFSSGANDKLKWCLRVNPKGLDEESKDYLSLCLLLVSCPKSEVRAKFKFSILNAKGEETKAMESQRAYRFVQGKDWGFKKFIRRDFLLDEANGLLPDDKLTLFCEVSVVQDSVNISGQNTMNMVKVPECRLADELGGLWENSRFTDCCLCVAGQEFQAHKAILAARSPVFSAMFEHEMEESKKNRVEINDVEPEVFKEMMCFIYTGKAPNLDKMADDLLAAADKYALERLKVMCEDALCSNLSVENAAEILILADLHSADQLKTQAVDFINYHASDVLETSGWKSMVVSHPHLVAEAYRSLASAQCPFLGPPRKRLKQS [Y87C] |
